This note sets out measurements from PMC5700975 (2017).

First the molecules themselves.
B1: Myc3-iSH2-p110β (wild type) [bovine | human] / GST-Rab5 wild-type [canine] (parent complex)
chain 1: LYEDYTRTSQEIQMKRTAIEAFNETIKIFEEQCQTQERYSKEYIEKFKREGNETEIQRIMHNYEKLKSRISEIVDSRRRLEEDLKKQAAEYREIDKRMNSIKGGGGGGGMCFSFIMPPAMADILDIWAVDSQIASDGSIPVDFLLPTGIYIQLEVPREATISYIKQMLWKQVHNYPMFNLLMDIDSYMFACVNQTAVYEELEDETRRLCDVRPFLPVLKLVTRSCDPGEKLDSKIGVLIGKGLHEFDSLKDPEVNEFRRKMRKFSEEKILSLVGLSWMDWLKQTYPPEHEPSIPENLEDKLYGGKLIVAVHFENCQDVFSFQVSPNMNPIKVNELAIQKRLTIHGKEDEVSPYDYVLQVSGRVEYVFGDHPLIQFQYIRNCVMNRALPHFILVECCKIKKMYEQEMIAIEAAINRNSSNLPLPLPPKKTRIISHVWENNNPFQIVLVKGNKLNTEETVKVHVRAGLFHGTELLCKTIVSSEVSGKNDHIWNEPLEFDINICDLPRMARLCFAVYAVLDKVKTKKSTKTINPSKYQTIRKAGKVHYPVAWVNTMVFDFKGQLRTGDIILHSWSSFPDELEEMLNPMGTVQTNPYTENATALHVKFPENKKQPYYYPPFDKIIEKAAEIASSDSANVSSRGGKKFLPVLKEILDRDPLSQLCENEMDLIWTLRQDCREIFPQSLPKLLLSIKWNKLEDVAQLQALLQIWPKLPPREALELLDFNYPDQYVREYAVGCLRQMSDEELSQYLLQLVQVLKYEPFLDCALSRFLLERALGNRRIGQFLFWHLRSEVHIPAVSVQFGVILEAYCRGSVGHMKVLSKQVEALNKLKTLNSLIKLNAVKLNRAKGKEAMHTCLKQSAYREALSDLQSPLNPCVILSELYVEKCKYMDSKMKPLWLVYNNKVFGEDSVGVIFKNGDDLRQDMLTLQMLRLMDLLWKEAGLDLRMLPYGCLATGDRSGLIEVVSTSETIADIQLNSSNVAAAAAFNKDALLNWLKEYNSGDDLDRAIEEFTLSCAGYCVASYVLGIGDRHSDNIMVKKTGQLFHIDFGHILGNFKSKFGIKRERVPFILTYDFIHVIQQGKTGNTEKFGRFRQCCEDAYLILRRHGNLFITLFALMLTAGLPELTSVKDIQYLKDSLALGKSEEEALKQFKQKFDEALRESWTTKVNWMAHTVRKDYRS
chain 2: ANRGATRPNGPNTGNKICQFKLVLLGESAVGKSSLVLRFVKGQFHEFQESTIGAAFLTQTVCLDDTTVKFEIWDTAGQERYHSLAPMYYRGAQAAIVVYDITNEESFARAKNWVKELQRQASPNIVIALSGNKADLANKRAVDFQEAQSYADDNSLLFMETSAKTSMNVNEIFMAIAKKLPKNEPQNPGANSARGRGVDLTEPTQPTRSQCCSN

Variants of B1 are the subject of the first experiment. Kind of experiment: GST pull-down, anti-Myc immunoblot quantification; GST-Rab5 fusion proteins (10 µg) on glutathione Sepharose beads, GppCp-loaded; Myc-iSH2-p110β from transfected COS-1 lysates; parent: 100; read off a plot. In general terms: Immunoblotting shows a protein as a band on a membrane.
For the variant chain 2 Y88A, the percent of parent is about 15 % WT.

Consider chain 2 S83A, for which the percent of parent is about 112 % WT.

chain 2 F56A: the percent of parent is about 24 % WT.

Regarding chain 2 Q43E, the percent of parent was about 115 % WT.

On to chain 2 E46A, for which the percent of parent is about 72 % WT.

For chain 2 R80E, the percent of parent was about 23 % WT.

On to chain 2 R90E, for which the percent of parent is about 20 % WT.

On to chain 2 I52A, for which the percent of parent is about 7 % WT.

For chain 2 W73A, the percent of parent was about 26 % WT.

On to chain 2 H45A, for which the percent of parent is about 110 % WT.

Turning to chain 2 H82E, the percent of parent is about 12 % WT.

chain 2 Y81A: the percent of parent was about 8 % WT.

chain 2 L84A: the percent of parent was about 16 % WT.

In a further experiment the parent is B1. Kind of experiment: GST pull-down, anti-Myc immunoblot quantification; GST-Rab5 loaded with GppCp; parent: 100; read off a plot.
In the case of chain 1 L341A, the percent of parent was about 117 % WT.

For the variant chain 1 D348R, the percent of parent is about 190 % WT.

For chain 1 Y353A, the percent of parent is about 7 % WT.
